Paper PMC8699488, “Side-by-Side Comparison of Five Chelators for ^89Zr-Labeling of Biomolecules: Investigation of Chemical/Radiochemical Properties and Complex Stability” (Cancers, 2021)

Experiments:
[1] = EDTA-based 89Zr complex challenge experiments (relative kinetic inertness, radio-HPLC); assay type: physicochemical; conditions: 10,000 eq. of EDTA, pH 7.0, 25 °C, transchelation monitored for up to 54 h by radio-HPLC
Method: For each challenge experiment, three separate solutions of EDTA (14.61 mg, 50 µmol EDTA) in HEPES buffer (0.25 M, pH = 7.0, 380 µL) were prepared. The pH of the solutions was adjusted to pH 7.0 by the addition of a NaOH solution (30%, 12.5 µL), and Tracepur water (7.5 µL) was added to give a final volume of 400 µL of the EDTA solutions. To these solutions was added a solution of the respective ^89Zr-labeled peptide conjugate (5 nmol, 9.7–13.9 MBq), and the solutions were kept at 25 °C over the course of the experiment. At predefined time points, each solution was analyzed by analytical radio-HPLC for determination of the amount of ^89Zr transchelation. Each experiment was performed at least twice, each in triplicate.
In order to directly compare and assess the kinetic inertness of the formed ^89Zr complexes of [^89Zr]Zr-29–[^89Zr]Zr-32, we performed complex challenge experiments using EDTA as the challenging agent of [^89Zr]Zr-30–[^89Zr]Zr-32 in comparison to [^89Zr]Zr-29 serving as the gold standard. […]

[2] = Determination of logD(7.4), distribution between n-octanol and phosphate buffer pH 7.4; assay type: physicochemical; conditions: n-octanol / 0.05-M phosphate buffer pH 7.4; 89Zr-labeled peptide-chelator conjugate
Method: To a mixture of 1-octanol (800 µL) and 0.05-M phosphate buffer (775 µL, pH 7.4), a solution of the respective ^89Zr-labeled peptide conjugate (5µL of the before-obtained product solution, 0.8–1.2 MBq, 0.37–0.45 nmol) was added. The mixture was vigorously shaken for two minutes. Afterwards, the phases were separated by centrifugation. Two hundred microliters of each, the organic and the aqueous, phase were measured in a gamma counter. Each experiment was performed at least thrice, each in duplicate.
The logD(7.4) values of the ^89Zr-labeled peptide–chelator conjugates were determined by their distribution coefficient between n-octanol and phosphate buffer at pH 7.4.

integrin αvβ3 = tested on: integrin αvβ3; set-up: method as in PMID 28074920; conditions: cited from earlier work

Row | Compound | kinetic inertness of the 89Zr complex against EDTA challenge [1] | logD [2] | affinity for integrin αvβ3 (integrin αvβ3)
1 | CC(=O)N(O)CCCCCNC(=O)CCC(=O)N(O)CCCCCNC(=O)CCC(=O)N(O)CCCCCNC(=O)CCC(=O)NCc1ccc(-c2nncc3c2CCC(OC(=O)NCCCC[C@@H]2NC(=O)[C@@H](Cc4ccccc4)NC(=O)[C@H](CC(=O)O)NC(=O)CNC(=O)[C@H](CCCNC(=N)N)NC2=O)CCC3)cc1 (some centres unmarked) [[^89Zr]Zr-29, metal not drawn] | limited inertness and rapid transfer of the radiometal to EDTA | -2.32 ± 0.21 | 
2 | CC(=O)N(O)CCCCCNC(=O)CCC(=O)N(O)CCCCCNC(=O)CCC(=O)N(O)CCCCCNC(=O)CCC(=O)N(O)CCCCCNC(=O)CCC(=O)NCc1ccc(-c2nncc3c2CCC(OC(=O)NCCCC[C@@H]2NC(=O)[C@@H](Cc4ccccc4)NC(=O)[C@H](CC(=O)O)NC(=O)CNC(=O)[C@H](CCCNC(=N)N)NC2=O)CCC3)cc1 (some centres unmarked) [[^89Zr]Zr-31, metal not drawn] | high resistance to the challenge | -2.49 ± 0.03 | 
3 | c(RGDfK) |  |  | high affinity
